Results as given in US20180282410A1 (Hoffmann-La Roche, published 2018).

T1: murine (mu) Robo 4 ECD-PreS-Avi-His (mouse)
T1 construct: also called recombinant murine Robo 4; murine Robo 4
T1 chain: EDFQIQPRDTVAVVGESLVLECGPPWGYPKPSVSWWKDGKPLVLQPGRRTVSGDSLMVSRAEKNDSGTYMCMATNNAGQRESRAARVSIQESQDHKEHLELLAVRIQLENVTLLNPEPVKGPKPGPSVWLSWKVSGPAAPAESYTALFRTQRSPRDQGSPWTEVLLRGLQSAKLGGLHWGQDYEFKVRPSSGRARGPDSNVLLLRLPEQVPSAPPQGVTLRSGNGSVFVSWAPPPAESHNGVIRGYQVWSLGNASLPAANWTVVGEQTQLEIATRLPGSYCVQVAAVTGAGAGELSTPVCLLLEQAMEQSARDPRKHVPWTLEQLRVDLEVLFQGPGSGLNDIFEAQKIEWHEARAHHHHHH

T2: recombinant cynomolgus Robo 4 ECD fused to AcTEV protease recognition site, Avi- and 6xHis-tag (cynomolgus)
T2 construct: Biotinylated in the avidity assay
T2 chain: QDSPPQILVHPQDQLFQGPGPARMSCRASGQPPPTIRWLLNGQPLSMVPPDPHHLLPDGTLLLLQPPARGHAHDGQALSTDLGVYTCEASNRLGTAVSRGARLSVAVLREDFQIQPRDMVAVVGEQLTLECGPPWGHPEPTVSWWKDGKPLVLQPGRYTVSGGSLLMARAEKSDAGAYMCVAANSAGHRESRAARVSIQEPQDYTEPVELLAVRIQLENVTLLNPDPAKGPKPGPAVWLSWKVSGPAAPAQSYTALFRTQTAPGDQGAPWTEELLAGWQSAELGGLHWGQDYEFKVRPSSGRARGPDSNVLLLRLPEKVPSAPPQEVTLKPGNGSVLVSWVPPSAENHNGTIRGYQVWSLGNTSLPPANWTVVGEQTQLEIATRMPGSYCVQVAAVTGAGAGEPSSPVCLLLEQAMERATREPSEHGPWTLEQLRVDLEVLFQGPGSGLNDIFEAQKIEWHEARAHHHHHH

T3: full-length human Robo 4 (on cells) (human, UniProt Q8WZ75 28-1007)
T3 construct: also called CHO-Robo 4; Robo 4 on HUVECs
T3 sequence: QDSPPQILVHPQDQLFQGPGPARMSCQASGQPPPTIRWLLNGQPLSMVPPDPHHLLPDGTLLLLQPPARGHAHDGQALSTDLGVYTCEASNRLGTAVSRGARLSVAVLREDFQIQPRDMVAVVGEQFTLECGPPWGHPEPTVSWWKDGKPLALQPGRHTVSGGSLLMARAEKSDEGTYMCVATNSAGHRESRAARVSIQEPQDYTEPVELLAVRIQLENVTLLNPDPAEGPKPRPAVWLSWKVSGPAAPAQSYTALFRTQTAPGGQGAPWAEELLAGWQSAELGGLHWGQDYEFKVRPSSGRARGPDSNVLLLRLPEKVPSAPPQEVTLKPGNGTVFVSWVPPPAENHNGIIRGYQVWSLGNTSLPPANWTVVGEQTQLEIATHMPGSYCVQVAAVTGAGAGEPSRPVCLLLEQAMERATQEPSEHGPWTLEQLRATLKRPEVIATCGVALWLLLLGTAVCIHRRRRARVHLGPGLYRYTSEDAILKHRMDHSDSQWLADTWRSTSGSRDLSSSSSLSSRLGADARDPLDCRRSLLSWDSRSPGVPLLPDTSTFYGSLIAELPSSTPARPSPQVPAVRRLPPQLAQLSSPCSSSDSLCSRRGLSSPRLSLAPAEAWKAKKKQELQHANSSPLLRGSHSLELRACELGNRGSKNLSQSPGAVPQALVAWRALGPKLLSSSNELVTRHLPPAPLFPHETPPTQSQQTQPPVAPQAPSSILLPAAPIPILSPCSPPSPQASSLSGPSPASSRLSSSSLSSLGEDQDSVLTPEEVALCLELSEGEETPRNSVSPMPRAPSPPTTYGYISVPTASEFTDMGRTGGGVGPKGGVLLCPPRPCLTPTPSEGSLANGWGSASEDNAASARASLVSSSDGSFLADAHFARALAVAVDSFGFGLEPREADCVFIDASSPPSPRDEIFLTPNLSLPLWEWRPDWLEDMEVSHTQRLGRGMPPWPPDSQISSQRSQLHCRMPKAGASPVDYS


Tests used:
[1] = target: T1, murine (mu) Robo 4 ECD-PreS-Avi-His; experiment: SPR Biacore T100, biotinylated antigen on streptavidin chip, IgG as analyte (avidity)
Procedure: (§1) All surface plasmon resonance (SPR) experiments are performed on a Biacore T100 at 25° C. with HBS-EP as running buffer (0.01 M HEPES pH 7.4, 0.15 M NaCl, 3 mM EDTA, 0.005% Surfactant P20 (Biacore)).
(§2) Determination of avidity was done by direct immobilization of biotinylated recombinant human, murine and cynomolgus Robo 4 on a Streptavidin sensor chip. Immobilization level ranged from 300 to 1000 RU. Anti-Robo 4 antibodies were passed through the flow cells for 220 s at 30 μl/min in a concentration range from 0.78-50 nM. Dissociation was monitored for 220 s. For the blank and the 25 nM injection dissociation was monitored for 600 s.
(§3) Kinetic constants were derived using the Biacore T100 Evaluation Software (vAA, Biacore), to fit rate equations for 1:1 Langmuir binding by numerical integration.

[2] = target: T2, recombinant cynomolgus Robo 4 ECD fused …; experiment: as above
Procedure: as §1, §2, §3

[3] = target: T3, full-length human Robo 4 (on cells); experiment: flow cytometry on CHO cells stably expressing full-length human Robo 4
Procedure: Binding of anti-Robo 4 IgGs was tested on CHO cells stably expressing full-length human Robo 4 (CHO-Robo 4). Briefly, cells were harvested, counted and checked for viability.

Row | Binder | Kd [1] | koff [1] | kon [1] | Kd [2] | kon [2] | EC50 [3] | koff [2]
1 | 01E06 anti-Robo 4 IgG (antibody, V domains shown, also called 01E06 IgG) VH: EVQLVESGGGLSQPGNSLKLSCEASGFTFRNYDMSWVRQAPGKGLEWVAYISSGGGPIYYVDAVKGRFTISRDNAKNLLFLQMNNLRSEDTAVYYCARDLADIGVFDYWGQGTMVTVSS VL: DFKMTQSPDILSPSLGESVTITCQSSQNIYSNLAWYQQKPGEHPKLLIYTASILADGIPSRFTGSGSGTQFSLKISSLQPDDVANYYCQQYVYYRTFGPGTKLEIK | 1.07 nM | 0.000805 s⁻¹ | 750000 M⁻¹ s⁻¹ | 0.0001 nM | 1.13e+06 M⁻¹ s⁻¹ | 1.1 nM | 
2 | 7G2 anti-Robo 4 IgG (antibody, V domains shown, also called 7G2 IgG) VH: not shown VL: EIVLTQSPGTLSLSPGERATLSCRASQSVSSSYLAWYQQKPGQAPRLLIYGASSRATGIPDRFSGSGSGTDFTLTISRLEPEDFAVYYCQQGQLPPRTFGQGTKVEIK |  |  |  | 0.94 nM | 310000 M⁻¹ s⁻¹ | 4.6 nM | 0.000291 s⁻¹
3 | 01F05 anti-Robo 4 IgG (antibody, V domains shown, also called 01F05 IgG) VH: QVQLKQSGAELVKPGASVKISCKTSVYTFTYGYMHWVEQKPGQGLEWIGRIDPDSGNSMYNQKFQGRATLTRDKSSSTVYMELRSLTSEDSAVYYCARSMRYSGYRDYALDLWGQGTQVTVSS VL: QLVLTQSPSASASLGASVKLTCTLSSQHSSYGITWLQQHPDKAPKYVMYLKSDGSHTKGADIPDRFSGSSSGVHRYLSISNVQPEDEAIYFCVTYDSTHVFGSGTQLTVLG | 0.19 nM | 7.32e-05 s⁻¹ | 373000 M⁻¹ s⁻¹ | 0.58 nM | 822000 M⁻¹ s⁻¹ | 6.1 nM | 0.000475 s⁻¹
4 | 01F09 anti-Robo 4 IgG (antibody, V domains shown, also called 01F09 IgG) VH: QIQLQESGPGLVKPSQSLSLTCSVTGYSISSGSLWTWIRQFPGNNLEWMGYISYAGGIDYNPSLTSRISITRDTSRNQFFLQLESVTTQDTATYYCATPGGYPFHFDYWGQGTMVTVSS VL: QPVLTQSPSASASLGASVKLTCTLNSQFSTYNIGWYQQHRDKPPKYVMFVKGDGGHSKADGIPDRFSGSSSGADRYLTISNIQAEDEAIYFCGADYNNAGQYGCVFGSGTHFTVLG | 1.09 nM | 0.00115 s⁻¹ | 1.05e+06 M⁻¹ s⁻¹ | 0.37 nM | 2.22e+06 M⁻¹ s⁻¹ | 2.5 nM | 0.000817 s⁻¹
